Source: publication PMC11574245, “Transplacental SARS-CoV-2 protein ORF8 binds to complement C1q to trigger fetal inflammation” (The EMBO Journal, 2024)

Each binder was assayed against T1, C1q Human protein (human, UniProt P02745 23-245; P02746 28-253; P02747 29-245) (assay: ELISA; plates coated with each of 28 ORF8 peptides (1 mM in carbonate buffer 50 mM pH 9.6, overnight 2-8 °C); human C1q (5, 10, 25 or 100 nM in 3% BSA/TBST) 2 h at room temperature; detected with sheep polyclonal anti-C1Q-HRP). Settings: both partners purified.
T1 construct: human complement C1q subcomponent subunit A (A chain of the C1q complex); human complement C1q subcomponent subunit B (B chain of the C1q complex); human complement C1q subcomponent subunit C (C chain of the C1q complex); The methods call it recombinant human C1q; also called human C1q; purified human C1q protein; source: bought: Complement Technology (Cat. A099); copies: 6 + 6 + 6
T1 sequence (P02745 23-245, chain 1 of 3): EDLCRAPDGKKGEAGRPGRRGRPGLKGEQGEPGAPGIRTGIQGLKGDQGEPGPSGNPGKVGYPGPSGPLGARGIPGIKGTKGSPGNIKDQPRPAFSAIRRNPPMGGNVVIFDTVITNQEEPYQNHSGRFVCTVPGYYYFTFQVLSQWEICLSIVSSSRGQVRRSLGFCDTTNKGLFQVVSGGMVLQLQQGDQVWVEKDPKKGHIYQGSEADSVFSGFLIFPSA
T1 sequence (P02746 28-253, chain 2 of 3): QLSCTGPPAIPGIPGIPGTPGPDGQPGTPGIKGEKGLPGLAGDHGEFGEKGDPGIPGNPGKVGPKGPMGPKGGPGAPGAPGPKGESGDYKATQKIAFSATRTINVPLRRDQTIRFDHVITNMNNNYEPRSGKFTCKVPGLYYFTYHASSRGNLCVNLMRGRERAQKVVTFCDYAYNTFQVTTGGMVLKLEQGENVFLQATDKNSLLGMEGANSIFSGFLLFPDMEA
T1 sequence (P02747 29-245, chain 3 of 3): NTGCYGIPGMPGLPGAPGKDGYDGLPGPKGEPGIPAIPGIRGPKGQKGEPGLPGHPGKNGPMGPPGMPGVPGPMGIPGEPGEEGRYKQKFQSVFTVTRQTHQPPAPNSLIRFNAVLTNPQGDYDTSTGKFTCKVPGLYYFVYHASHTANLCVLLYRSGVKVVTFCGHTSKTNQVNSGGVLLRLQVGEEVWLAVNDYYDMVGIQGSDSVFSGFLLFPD

Row | Binder | binding result
1 | CPIHFYSKWYIRVGA [SARS-CoV-2 ORF8 peptide #10 (C37-A51)] | binds
2 | SLVVRCSFYEDFLEY [SARS-CoV-2 ORF8 peptide #25 (S97-Y111)] | binds
3 | YIDIGNYTVSCLPFT [SARS-CoV-2 ORF8 peptide #19 (Y73-T87)] | binds
